Measured values: patent US20250011363A1, “OPTIMIZED SHORTENED PEPTIDE THAT BINDS TO ACETYLCHOLINE RECEPTOR, AND USE THEREOF” (SKINMED CO., LTD., priority 2021, published 2025)

target: acetylcholine receptor; assay: SPR, AchR immobilised on CM5 chip, peptide 10 uM

Row | Binding affinity (RU) | Binder
1 | 32 | RKNPKR [6mer-2-610]
2 | 31 | KFDVRK [6mer-2-649]
3 | 12 | KYDIKR [6mer-2-632]
4 | 31 | KKWVKR [6mer-2-607]
5 | 12 | REEFRR [6mer-2-641]
6 | 26 | RPPDRR [6mer-2-619]
7 | 19 | KAWIRR [6mer-2-614]
8 | 15 | RKPFRR [6mer-2-606]
9 | 12 | KANPKK [6mer-2-643]
10 | 24 | RDSDRR [6mer-2-609]
11 | 17 | RDCVRK [6mer-2-612]
12 | 27 | RRICMR [6mer-1-1062]
13 | 13 | KHAHRR [6mer-2-623]
14 | 33 | RHTGRR [6mer-2-620]
15 | 16 | KYCMKR [6mer-2-631]
16 | 41 | RRISIR [6mer-1-1061]
17 | 21 | KFKKKR [6mer-2-640]
18 | 19 | KTEPKR [6mer-2-647]
19 | 33 | KPPIRK [6mer-2-624]

Row | Binding affinity (RU) | Binder
20 | 32 | RPPVRK [6mer-2-637]
21 | 17 | KYAVKR [6mer-2-633]
22 | 13 | RYTNKR [6mer-2-622]
23 | 23 | KHTVKK [6mer-2-639]
24 | 26 | REPHRK [6mer-2-616]
25 | 32 | RCNGRR [6mer-2-617]
26 | 16 | RTTMRK [6mer-2-652]
27 | 27 | RYAFRR [6mer-2-630]
28 | 11 | KECVRR [6mer-2-635]
29 | 32 | KFHARR [6mer-2-603]
30 | 33 | RYEHRK [6mer-2-634]
31 | 33 | KKTARR [6mer-2-627]
32 | 18 | KAANRR [6mer-2-613]
33 | 25 | KKIDHK [6mer-1-1063]
34 | 25 | KNSHKK [6mer-2-601]
35 | 30 | RCWAKR [6mer-2-638]
36 | 22 | RIKMRR [6mer-2-611]
37 | 32 | RAAPRR [6mer-2-646]
38 | 12 | KHHKKR [6mer-2-618]

Row | Binding affinity (RU) | Binder
39 | 12 | REPNRR [6mer-2-644]
40 | 17 | KNCGKK [6mer-2-605]
41 | 21 | KMAPKR [6mer-2-636]
42 | 23 | RYPDRK [6mer-2-648]
43 | 24 | RNTPKR [6mer-2-602]
44 | 33 | KNSEKK [6mer-2-626]
45 | 32 | RCNHKK [6mer-2-608]
46 | 30 | RKSFKR [6mer-2-628]
47 | 33 | RFPDKK [6mer-2-625]
48 | 41 | RKPTAK [6mer-1-1064]
49 | 16 | KTENKK [6mer-2-642]
50 | 15 | RIKVKK [6mer-2-645]
51 | 32 | RHEPKR [6mer-2-621]
52 | 21 | KNADRR [6mer-2-651]
53 | 27 | KDNGRK [6mer-2-615]
54 | 18 | RFKARK [6mer-2-650]
55 | 32 | RFCWKK [6mer-2-629]
56 | 16 | KEPIRK [6mer-2-604]
